Data as given in US20140100836A1 (ETH ZURICH, published 2014).
Non-standard residues stand in square brackets, D forms with d. Phe(4-NO2) = N[C@@H](Cc1ccc([N+](=O)[O-])cc1)C(=O)O

Target: T1, acceptor hexapeptide Ac-DQNATF{4NO2}-NH2 (SMILES CC(=O)N[C@@H](CC(=O)O)C(=O)N[C@@H](CCC(N)=O)C(=O)N[C@@H](CC(N)=O)C(=O)N[C@@H](C)C(=O)N[C@H](C(=O)N[C@@H](Cc1ccc([N+](=O)[O-])cc1)C(N)=O)[C@@H](C)O)
T1 construct: also called DQNATF{pNO2}; acceptor peptide
T1 peptide: Ac-DQNAT[Phe(4-NO2)]-NH2
Assay: calculated from the X-ray co-crystal structure with areaimol

B1: oligosaccharyltransferase (OST) PgIB from Campylobacter lari, full length, with C-terminal decahistidine affinity tag (expressed from pSF2, purified in DDM and … (enzyme)
chain: MELQQNFTDNNSIKYTCILILIAFAFSVLCRLYWVAWASEFYEFFFNDQLMITTNDGYAFAEGARDMIAGFHQPNDLSYFGSSLSTLTYWLYSILPFSFESIILYMSTFFASLIVVPIILIAREYKLTTYGFIAALLGSIANSYYNRTMSGYYDTDMLVLVLPMLILLTFIRLTINKDIFTLLLSPIFIMIYLWWYPSSYSLNFAMIGLFGLYTLVFHRKEKIFYLAIALMIIALSMLAWQYKLALIVLLFAIFAFKEEKINFYMIWALIFISISILHLSGGLDPVLYQLKFYVFKASDVQNLKDAAFMYFNVNETIMEVNTIDPEVFMQRISSSVLVFILSFIGFILLCKDHKSMLLALPMLALGFMALRAGLRFTIYAVPVMALGFGYFLYAFFNFLEKKQIKLSLRNKNILLILIAFFSISPALMHIYYYKSSTVFTSYEASILNDLKNKAQREDYVVAWWDYGYPIRYYSDVKTLIDGGKHLGKDNFFSSFVLSKEQIPAANMARLSVEYTEKSFKENYPDVLKAMVKDYNQTSAKDFLESLNDKNFKFDTNKTRDVYIYMPYRMLRIMPVVAQFANTNPDNGEQEKSLFFSQANAIAQDKTTGSVMLDNGVEIINDFRALKVEGASIPLKAFVDIESITNGKFYYNEIDSKAQIYLLFLREYKSFVILDESLYNSAYIQMFLLNQYDQDLFEQVTNDTRAKIYRLKR
notes: Residues 283-306, 605-607 and the His tag are disordered in the structure; also called C. lari PgIB; PglB
- contact surface of the peptide buried at the interface of the TM and periplasmic domains: ~80%
